Measurements reported in US20240386992A1 (MAX DELBR CK CENTRUM F R MOLEKULARE MEDIZIN IN DER …, published 2024).

Target: MERS-CoV wild type receptor-binding domain (MERS-wtRBD), Twin Strep tagged (MERS-CoV)
Test: ELISA (FIG. 9)

B1: LCA60 (antibody, V domains shown)
VH: EVQLLESGGGLVKPGGSLRLSCEASGLTFSNVWMSWVRQAPGKGLEWVGRIKRKSEGATTDYGAPVKGRFTLSRDDSKNTVYLQMNSLKIDDTAVYYCSTLTRGGDVWSSSYYFDYWGQGALVTVSS
VL: QSALTQPASVSGSPGQSITISCTGTSSDVGTYDLVSWYQQHPGKSPKLMIYADIKRPSGVSHRFSGSKSGNTASLTISGLQSADEADYYCCLYAGSSTSVIFGGGTKVT
binding result: binds

B2: D12 (antibody, V domains shown)
VH: EVKLVESGGGLVKPGGSLKLSCAASGFTFSSYAMSWVRQTPEKRLEWVATISSGGTYTYYPDSVKGRFTISRDNAENTLYLQMSSLRSEDTAMYYCVRDGNSMDYWGQGTSVTVSS
VL: DIQMTQTTSSLSASLGDRVTIICRASQDINNYLNWYQQKPDGTVKLLIYYTSRLHSGVPSRFSGSGSGSDYSLTISNLEQEDIATYFCQQANTLPPTFGAGTKLELR
binding result: binds
